Kd data for one molecule are collected here from publication PMC2807033, “Rep Provides a Second Motor at the Replisome to Promote Duplication of Protein-Bound DNA” (Molecular Cell, 2009).

No end group written: not given here. *: point of attachment. Biotin = O=C1N[C@H]2[C@H](CS[C@H]2CCCCC(=O)*)N1

This assay deals with T1, E. coli replicative helicase DnaB, purified (E. coli, UniProt P0ACB0 1-471).
T1 construct: replicative helicase DnaB, E. coli; Construct and purification are in the Supplemental Experimental Procedures; also called E. coli DnaB
T1 sequence (P0ACB0 whole entry): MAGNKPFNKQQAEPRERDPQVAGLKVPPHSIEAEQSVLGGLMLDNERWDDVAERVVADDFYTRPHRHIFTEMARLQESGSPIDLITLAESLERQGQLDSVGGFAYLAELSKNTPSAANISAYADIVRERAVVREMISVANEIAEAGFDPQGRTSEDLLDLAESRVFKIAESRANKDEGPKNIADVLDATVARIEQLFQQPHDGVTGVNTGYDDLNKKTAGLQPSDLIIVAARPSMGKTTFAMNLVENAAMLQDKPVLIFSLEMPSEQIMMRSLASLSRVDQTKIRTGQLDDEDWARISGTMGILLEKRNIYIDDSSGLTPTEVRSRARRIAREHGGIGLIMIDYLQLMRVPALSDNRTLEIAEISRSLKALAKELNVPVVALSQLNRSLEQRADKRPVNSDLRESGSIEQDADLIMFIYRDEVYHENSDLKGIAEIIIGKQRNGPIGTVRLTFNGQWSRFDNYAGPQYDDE
The experiment in a line: not stated; apparent KD (equilibrium dissociation constant), Figure S5; the method is not told in the text shown (SPR is the only quantitative binding method that the paper names). The settings on record: both partners purified.

B1: C33^Rep peptide (synthetic peptide corresponding to the C-terminal 33 residues of Rep) (peptide, UniProt P09980 641-673, looked up)
peptide: Biotin-EQERKVVSAEERMQKGQSHLANLKAMMAAKRGK
notes: C-terminal 33 residues of Rep helicase, E. coli; also called the Rep C terminus; source: synthetic peptide; not shown: biotin tag, N-terminal, kept
In the case of B1, the Kd was less than 100 nM.
